Results on three molecules are retold here after patent publication US20190192675A1 (Merck Sharp & Dohme, published 2019).

Non-standard residues stand in square brackets, D forms with d. No end group written: not given here. Lys(N3) = [N-]=[N+]=NCCCC[C@H](N)C(=O)O; Aib = CC(C)(N)C(=O)O

Assay [1] deals with human Glucagon receptor (GCGR) (human, UniProt P47871 26-477). Kind of assay: cell-based or functional assay.
In assay [2] the target is human GLP-1 receptor (GLP1R) (human, UniProt P43220 24-463). Kind of assay: cell-based or functional assay.
human GLP-1 receptor (GLP1R), sequence (P43220 24-463): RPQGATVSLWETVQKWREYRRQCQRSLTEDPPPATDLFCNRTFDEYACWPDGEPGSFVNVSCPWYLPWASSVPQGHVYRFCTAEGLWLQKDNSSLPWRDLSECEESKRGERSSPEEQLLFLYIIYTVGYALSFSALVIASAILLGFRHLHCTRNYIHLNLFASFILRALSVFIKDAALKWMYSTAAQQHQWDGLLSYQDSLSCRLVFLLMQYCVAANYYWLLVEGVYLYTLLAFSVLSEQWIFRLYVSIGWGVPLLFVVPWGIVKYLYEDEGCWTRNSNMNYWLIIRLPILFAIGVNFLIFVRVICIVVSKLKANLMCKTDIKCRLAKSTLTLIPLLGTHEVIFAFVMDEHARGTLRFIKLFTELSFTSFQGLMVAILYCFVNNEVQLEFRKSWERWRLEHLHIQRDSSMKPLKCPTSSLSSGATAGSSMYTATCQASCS

For H[Aib]QGTFTSDKSKYLD[Aib]RAAQDFVQWLMNTKQ[Lys(N3)]-NH2 [PEP89], the “hGCGR_EC50 (nM), cAMP activity assay” value in assay [1] stood at 3.9 nM. The “hGLP1R EC50 (nM), cAMP activity assay” value in assay [2] came out at 0.044 nM.

For HXQGTFTSDKSKYLDERAAQDFVXWLLDT (D-Ser (s) at 2; K(γEγEC16) at 10; Nle(εN3) at 24; C-terminal amide) [PEP87], the “hGCGR_EC50 (nM), cAMP activity assay” value in assay [1] was 0.019 nM.

With HXQGTFTSDKSKYLDERAAQDFVXWLLDT (D-Ser (s) at 2; Nle(εN3) at 24; C-terminal amide) [PEP88], the “hGCGR_EC50 (nM), cAMP activity assay” value in assay [1] came to 0.093 nM. Further, in assay [2], the “hGLP1R EC50 (nM), cAMP activity assay” value amounted to 0.09 nM.
